Measured values as given in patent publication US12404345B2, “Humanized antibodies against iRHOM2” (SCIRHOM GMBH, priority 2021, dated 2025).
Positions count from the first letter of the chain named. One block for each molecule: values may come before it.

Target: T1, dog iRhom2 (Canis lupus familiaris, UniProt Q00M95)
T1 construct: pMSCV-dog-iR2-FL-WT-T7 encoding dog iRhom2 full length wild type; expressed in transfected cells; host or cells: immortalized iRhom1/2-/- DKO mouse embryonic fibroblasts, pMSCV retroviral infection
T1 sequence (Q00M95 1-827): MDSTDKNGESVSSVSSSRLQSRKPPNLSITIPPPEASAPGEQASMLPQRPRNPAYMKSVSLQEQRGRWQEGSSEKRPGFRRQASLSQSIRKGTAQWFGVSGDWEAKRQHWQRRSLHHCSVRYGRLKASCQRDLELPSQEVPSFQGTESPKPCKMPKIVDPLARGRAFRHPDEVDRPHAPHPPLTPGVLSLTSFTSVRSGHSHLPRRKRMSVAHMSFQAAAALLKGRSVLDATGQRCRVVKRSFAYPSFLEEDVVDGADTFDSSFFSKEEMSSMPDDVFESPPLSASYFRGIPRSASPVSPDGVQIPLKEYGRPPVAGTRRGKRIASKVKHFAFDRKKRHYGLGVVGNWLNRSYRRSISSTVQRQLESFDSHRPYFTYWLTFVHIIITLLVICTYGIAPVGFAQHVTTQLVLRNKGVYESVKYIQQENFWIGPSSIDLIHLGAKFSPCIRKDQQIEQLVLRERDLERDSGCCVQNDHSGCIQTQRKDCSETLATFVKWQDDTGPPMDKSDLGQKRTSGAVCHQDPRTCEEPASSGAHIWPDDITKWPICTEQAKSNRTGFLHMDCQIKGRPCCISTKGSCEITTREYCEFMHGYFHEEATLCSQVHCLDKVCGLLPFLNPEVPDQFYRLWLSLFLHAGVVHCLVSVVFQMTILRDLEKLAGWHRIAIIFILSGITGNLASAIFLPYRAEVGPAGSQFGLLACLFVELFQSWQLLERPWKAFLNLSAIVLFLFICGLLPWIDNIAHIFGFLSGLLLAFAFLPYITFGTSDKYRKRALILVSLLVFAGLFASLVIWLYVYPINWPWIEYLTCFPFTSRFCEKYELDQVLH
Assay: FACS cross-reactivity on MEF-DKO-Dog-iR2-FL-WT-T7 cells
Format: binding
Settings: antibody at 3 μg/ml
Description: Next, iRhom1/2−/− DKO MEFs stably expressing a tagged form of rhesus monkey, cynomolgus monkey, dog or rabbit iRhom2 were generated in order to determine cross-reactivity of the antibodies of the invention with the respective orthologue of iRhom2. iRhom1/2−/− DKO MEFs stably expressing a tagged form of rhesus monkey, cynomolgus monkey, dog or rabbit iRhom1 were generated to confirm specificity for iRhom2 versus iRhom1 of these species.
In brief, on day 1, Phoenix-ECO cells (American Type Culture Collection, USA) were seeded on 6-well tissue culture plates (Greiner, Germany) in standard growth medium at 8×10^5 cells per well and kept overnight at 37° C., 5% CO2. On day 2, the medium was replaced by fresh medium supplemented with chloroquine (Sigma-Aldrich, USA) at a final concentration of 25 μM. Applying the calcium phosphate method, cells were transfected with 2 μg/ml of pMSCV (Clontech, USA) empty vector, pMSCV-rhesus-iR2-FL-WT-T7 encoding rhesus monkey iRhom2 full length wild type C-terminally tagged with 3 consecutive copies of the T7 epitope, pMSCV-cyno-iR2-FL-WT-T7 encoding cynomolgus monkey iRhom2 full length wild type C-terminally tagged with 3 consecutive copies of the T7 epitope, pMSCV-dog-iR2-FL-WT-T7 encoding dog iRhom2 full length wild type C-terminally tagged with 3 consecutive copies of the T7 epitope or pMSCV-rabbit-iR2-FL-WT-T7 encoding rabbit iRhom2 full length wild type C-terminally tagged with 3 consecutive copies of the T7 epitope, respectively, and were kept at 37° C., 5% CO2. After 7 hours, the transfections were stopped by replacing cell supernatants with standard growth medium lacking chloroquine, and cells were incubated at 37° C., 5% CO2 to allow virus production overnight. In parallel, immortalized iRhom1/2−/− DKO MEFs as target cells for retroviral infection were seeded on 6-well tissue culture plates (Greiner, Germany) in standard growth medium at 1×10^5 cells per well and were also kept overnight at 37° C., 5% CO2. On day 3, the supernatants of Phoenix-ECO cells releasing pMSCV, pMSCV-rhesus-iR2-FL-WT-T7, pMSCV-cyno-iR2-FL-WT-T7, pMSCV-dog-iR2-FL-WT-T7 or pMSCV-rabbit-iR2-FL-WT-T7 ecotrophic virus, respectively were collected, filtered with 0.45 μm CA filters, and supplemented with 4 μg/ml of polybrene (Sigma-Aldrich, USA). Upon removal of medium from the immortalized iRhom1/2−/− DKO MEFs, the virus containing supernatants were added to the target cells for 4 hours at 37° C., 5% CO2 for first infection. Simultaneously, Phoenix-ECO cells were re-incubated with fresh medium, which, after another 4 hours, was filtered and used for the second infection of the respective target cell populations, again in the presence of 4 μg/ml of polybrene. Likewise, a third, but overnight infection cycle was performed. On day 4, virus containing cell supernatants were replaced by fresh standard growth medium. From day 5 onwards, cells were grown in the presence of 2 mg/ml of geneticin (G418, Thermo Fisher Scientific, USA) for the selection of immortalized MEF-DKO-EV control cells stably infected with pMSCV empty vector, pMSCV-rhesus-iR2-FL-WT-T7 cells stably expressing rhesus monkey iRhom2 full length wild type C-terminally tagged with 3 consecutive copies of the T7 epitope, pMSCV-cyno-iR2-FL-WT-T7 cells stably expressing cynomolgus monkey iRhom2 full length wild type C-terminally tagged with 3 consecutive copies of the T7 epitope, pMSCV-dog-iR2-FL-WT-T7 cells stably expressing dog iRhom2 full length wild type C-terminally tagged with 3 consecutive copies of the T7 epitope or pMSCV-rabbit-iR2-FL-WT-T7 cells stably expressing rabbit iRhom2 full length wild type C-terminally tagged with 3 consecutive copies of the T7 epitope, respectively. Upon propagation, cells were stocked for future usage. In parallel, iRhom1/2−/− DKO MEFs stably expressing a tagged form of rhesus monkey, cynomolgus monkey, dog or rabbit iRhom1 were generated in an analogous manner. […]

- binding to dog iRhom2 on MEF-DKO-Dog-iR2-FL-WT-T7 cells: Strong binding
B1: 16-B-03: humanized antibody binding human iRhom2; HCVD SEQ ID NO 1, LCVD SEQ ID NO 5 (antibody, V domains shown)
VH: QVTLRESGPALVKPTQTLTLTCTFSGFSLSTFALGVGWIRQPPGKALEWLAHIWWDDDKYYNPALKSRLTISKDTSKNQVVLTITNMDPVDTATYYCARITTYYYGMDYWGQGTLVTVSS
VL: EIVMTQSPDFQSVTPKEKVTITCRASQSIGNHLHWYQQKPDASPKLLIKYASQSISGVPSRFSGSGSGTDFTLTINSLEAEDAATYFCQQSYQWPLTFGQGTKLEIK
modifications: antibody sequences

- binding to dog iRhom2 on MEF-DKO-Dog-iR2-FL-WT-T7 cells: recognize dog iRhom2
B2: 16-B-05: humanized antibody binding human iRhom2; HCVD SEQ ID NO 9, LCVD SEQ ID NO 13 (antibody, V domains shown)
VH: B1 VH with D57E
VL: B1 VL with Q93N
modifications: antibody sequences

- binding to dog iRhom2 on MEF-DKO-Dog-iR2-FL-WT-T7 cells: recognize dog iRhom2
B3: 16-B-07: humanized antibody binding human iRhom2; HCVD SEQ ID NO 17, LCVD SEQ ID NO 21 (antibody, V domains shown)
VH: B1 VH with D57E
VL: B1 VL
modifications: antibody sequences

- binding to dog iRhom2 on MEF-DKO-Dog-iR2-FL-WT-T7 cells: recognize dog iRhom2
B4: 23-B-04: humanized antibody binding human iRhom2; HCVD SEQ ID NO 25, LCVD SEQ ID NO 29 (antibody, V domains shown)
VH: QVTLRESGPALVKPTQTLTLTCTFSGFSLSTFGMGVGWIRQPPGKALEWLAHIWWDDEKYYNSALKSRLTISKDTSKNQVVLTITNMDPVDTATYYCARISNYGSNYWYFNVWGQGTLVTVSS
VL: AIQLTQSPSSLSASVGDRVTITCRASSSVSYMYWYQQKPGKAPKVLIYDTSNLASGVPSRFSGSGSGTDYTLTISSLQPEDFATYYCQQWNAYPLTFGQGTKLEIK
modifications: antibody sequences

- binding to dog iRhom2 on MEF-DKO-Dog-iR2-FL-WT-T7 cells: recognize dog iRhom2
B5: 42-B-02: humanized antibody binding human iRhom2; HCVD SEQ ID NO 33, LCVD SEQ ID NO 37 (antibody, V domains shown)
VH: B4 VH with M34R, S101Q, N111D
VL: B4 VL with S28R, V29I, Y33F, A92S
modifications: antibody sequences

- binding to dog iRhom2 on MEF-DKO-Dog-iR2-FL-WT-T7 cells: recognize dog iRhom2
B6: 42-B-04: humanized antibody binding human iRhom2; HCVD SEQ ID NO 41, LCVD SEQ ID NO 45 (antibody, V domains shown)
VH: B4 VH with M34R, S101Q, N111D
VL: B4 VL with S28R, V29I, Y33F
modifications: antibody sequences
